# Literature values in paper PMC5040959.
# Biological target: Glu286 (UniProt position 286, FFGHPEVYIIV)
# Experiment: kinetics
# Settings: fully reduced CytcO reacting with O2, F -> O step
substance,measurement,value
"Cytochrome c oxidase (cytochrome aa3), subunit I (Rhodobacter sphaeroides)",pKa,~9
